This assay concerns the target Flag-Lrp4-mCherry (mouse) (UniProt Q8VI56). The assay can be described thus: flow cytometry on cells. In general terms: Flow cytometry measures light scatter and fluorescence of single cells or particles in a stream.
Sequence of UniProt Q8VI56 (Q8VI56 21-1905): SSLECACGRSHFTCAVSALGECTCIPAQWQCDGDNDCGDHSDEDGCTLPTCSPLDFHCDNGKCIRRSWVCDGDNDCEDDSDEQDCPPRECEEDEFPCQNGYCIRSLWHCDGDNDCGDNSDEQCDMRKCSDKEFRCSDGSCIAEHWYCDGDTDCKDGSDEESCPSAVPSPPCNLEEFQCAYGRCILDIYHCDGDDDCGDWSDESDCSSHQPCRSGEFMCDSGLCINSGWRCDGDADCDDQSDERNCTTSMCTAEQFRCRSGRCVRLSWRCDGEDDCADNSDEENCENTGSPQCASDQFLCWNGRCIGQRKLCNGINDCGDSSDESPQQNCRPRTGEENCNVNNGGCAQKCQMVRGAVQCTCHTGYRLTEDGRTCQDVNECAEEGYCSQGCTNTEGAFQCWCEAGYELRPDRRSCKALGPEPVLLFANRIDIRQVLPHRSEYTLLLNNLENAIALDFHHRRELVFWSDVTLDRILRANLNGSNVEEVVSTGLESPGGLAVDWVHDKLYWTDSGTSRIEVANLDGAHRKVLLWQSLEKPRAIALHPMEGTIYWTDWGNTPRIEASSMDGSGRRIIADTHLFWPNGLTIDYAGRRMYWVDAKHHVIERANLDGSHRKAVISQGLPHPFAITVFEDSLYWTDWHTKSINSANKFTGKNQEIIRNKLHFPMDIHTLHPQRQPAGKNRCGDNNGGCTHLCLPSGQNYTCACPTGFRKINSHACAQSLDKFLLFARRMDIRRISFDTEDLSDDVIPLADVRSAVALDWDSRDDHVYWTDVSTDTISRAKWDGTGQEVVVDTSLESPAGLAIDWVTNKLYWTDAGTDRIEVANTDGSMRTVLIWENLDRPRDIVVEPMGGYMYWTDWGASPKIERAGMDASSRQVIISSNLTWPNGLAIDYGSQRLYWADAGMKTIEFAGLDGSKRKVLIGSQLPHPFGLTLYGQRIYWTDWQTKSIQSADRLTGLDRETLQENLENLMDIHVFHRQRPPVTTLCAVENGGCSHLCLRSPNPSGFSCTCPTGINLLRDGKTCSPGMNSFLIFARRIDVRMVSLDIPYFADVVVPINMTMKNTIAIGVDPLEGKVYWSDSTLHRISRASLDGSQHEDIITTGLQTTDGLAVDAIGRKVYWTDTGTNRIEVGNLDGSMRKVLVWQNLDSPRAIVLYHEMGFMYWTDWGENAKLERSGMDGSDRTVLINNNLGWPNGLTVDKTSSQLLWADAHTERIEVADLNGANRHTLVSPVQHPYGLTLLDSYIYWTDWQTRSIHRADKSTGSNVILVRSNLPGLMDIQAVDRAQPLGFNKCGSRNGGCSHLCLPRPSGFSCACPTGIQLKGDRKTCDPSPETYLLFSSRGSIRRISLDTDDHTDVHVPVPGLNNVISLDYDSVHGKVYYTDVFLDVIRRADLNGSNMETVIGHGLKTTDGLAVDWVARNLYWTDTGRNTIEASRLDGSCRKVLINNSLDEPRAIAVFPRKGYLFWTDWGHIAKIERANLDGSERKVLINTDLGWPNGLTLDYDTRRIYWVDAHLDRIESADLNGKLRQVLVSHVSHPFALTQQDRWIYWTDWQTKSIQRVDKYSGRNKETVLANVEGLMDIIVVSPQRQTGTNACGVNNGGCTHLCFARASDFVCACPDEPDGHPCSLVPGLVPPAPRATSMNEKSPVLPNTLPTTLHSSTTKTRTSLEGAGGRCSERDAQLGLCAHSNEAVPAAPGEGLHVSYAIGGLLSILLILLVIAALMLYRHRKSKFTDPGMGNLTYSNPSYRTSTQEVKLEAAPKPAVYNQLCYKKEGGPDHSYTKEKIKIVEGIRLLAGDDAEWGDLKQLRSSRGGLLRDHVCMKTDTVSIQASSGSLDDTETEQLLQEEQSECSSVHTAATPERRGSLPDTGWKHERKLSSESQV

With “50 kd C-terminal fragment of Agrin B8 (domain or fragment)”, the EC50 turned out to be 6 nM and the fold increase of binding with calcium against without calcium amounted to 20 fold.

For “50 kd C-terminal fragment of Agrin B0 (domain or fragment)”, the fold higher affinity of Agrin B8 than of Agrin B0 turned out to be 100 fold.

In general, EC50 refers to the concentration at which the effect is half-maximal. Read a low EC50 as a more potent agent.

(Values after paper PMC2933840.)
